Experimental findings from patent publication US20170247448A1 (INTRINSIC LIFESCIENCES, published 2017) are described below.

A word on the EC50: it is the concentration that produces a half-maximal response.

Assay [1] deals with T1, BAP070-hum03.
T1 construct: Expressed as soluble IgG1 in CHO cells, tested as supernatant; The entries stop inside FR4
Description: C-ELISA: goat anti-human Fc coated plate, antibody captured, unlabelled hepcidin titrated against a labelled tracer not named for this figure; the EC50 row has 7 cells under 8 columns and is assigned in order to the 7 antibodies with human Fc. (An ELISA detects its analyte on a solid surface through an enzyme-linked reagent.)

Assay [2] has as its target T2, BAP070-hum02.
T2 construct: Expressed as soluble IgG1 in CHO cells, tested as supernatant; The entries stop inside FR4
Described as above.

Assay [3] addresses T3, BAP070-01 (human-mouse chimeric MAb 583).
T3 construct: used as CHO cell supernatant; also called BAP070-1
Described as above.

Assay [4] has as its target T4, BAP070-hum05.
T4 construct: Expressed as soluble IgG1 in CHO cells, tested as supernatant; The entries stop inside FR4
Described as above.

The target in assay [5] is T5, BAP070-hum04.
T5 construct: Expressed as soluble IgG1 in CHO cells, tested as supernatant; The entries stop inside FR4
T5 sequence (VH, as listed by the source, chain 1 of 2): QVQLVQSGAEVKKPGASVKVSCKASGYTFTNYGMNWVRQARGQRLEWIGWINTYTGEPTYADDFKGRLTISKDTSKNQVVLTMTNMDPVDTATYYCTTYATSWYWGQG
T5 sequence (VL, as listed by the source, chain 2 of 2): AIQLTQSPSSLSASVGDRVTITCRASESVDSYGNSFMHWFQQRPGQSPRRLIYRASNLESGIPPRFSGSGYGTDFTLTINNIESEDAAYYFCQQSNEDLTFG
The description is as above.

For assay [6], the target named is T6, BAP070-hum06.
T6 construct: Expressed as soluble IgG1 in CHO cells, tested as supernatant; The entries stop inside FR4
T6 sequence (VH, as listed by the source, chain 1 of 2): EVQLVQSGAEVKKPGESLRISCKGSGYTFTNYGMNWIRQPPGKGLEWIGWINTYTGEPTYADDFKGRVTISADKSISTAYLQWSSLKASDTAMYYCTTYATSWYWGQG
T6 sequence (VL, as listed by the source, chain 2 of 2): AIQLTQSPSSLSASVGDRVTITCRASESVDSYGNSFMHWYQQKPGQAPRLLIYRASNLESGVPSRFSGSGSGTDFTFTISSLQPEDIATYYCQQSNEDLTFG
The description is as above.

Assay [7] addresses T7, MAb 583.
T7 construct: Murine monoclonal, Protein A purified
Description: C-ELISA with purified MAb 583; competitor NT-biotin hepcidin-25.

T4 sequence (VL, as listed by the source, chain 2 of 2): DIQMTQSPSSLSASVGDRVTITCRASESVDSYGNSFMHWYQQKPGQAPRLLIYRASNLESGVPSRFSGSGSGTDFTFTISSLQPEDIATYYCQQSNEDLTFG
T2 sequence (VL, as listed by the source, chain 2 of 2): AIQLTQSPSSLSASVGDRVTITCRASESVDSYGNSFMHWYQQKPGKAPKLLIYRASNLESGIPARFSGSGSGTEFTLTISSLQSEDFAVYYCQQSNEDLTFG
T1 sequence (VH, as listed by the source, chain 1 of 2): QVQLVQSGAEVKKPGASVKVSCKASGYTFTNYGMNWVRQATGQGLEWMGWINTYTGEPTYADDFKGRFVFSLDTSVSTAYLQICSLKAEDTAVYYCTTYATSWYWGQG
T3 sequence (VH, as listed by the source, chain 1 of 2): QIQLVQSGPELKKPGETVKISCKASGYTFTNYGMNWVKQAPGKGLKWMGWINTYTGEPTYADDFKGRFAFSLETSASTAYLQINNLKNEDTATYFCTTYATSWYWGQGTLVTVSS
T3 sequence (VL, as listed by the source, chain 2 of 2): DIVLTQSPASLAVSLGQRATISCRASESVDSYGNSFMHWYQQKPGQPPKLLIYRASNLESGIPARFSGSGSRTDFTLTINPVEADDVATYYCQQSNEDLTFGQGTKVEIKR
T7 sequence (VH, as listed by the source, chain 1 of 2): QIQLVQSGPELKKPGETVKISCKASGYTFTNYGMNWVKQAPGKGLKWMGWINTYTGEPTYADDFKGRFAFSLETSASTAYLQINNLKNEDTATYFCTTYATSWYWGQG
T7 sequence (VL, as listed by the source, chain 2 of 2): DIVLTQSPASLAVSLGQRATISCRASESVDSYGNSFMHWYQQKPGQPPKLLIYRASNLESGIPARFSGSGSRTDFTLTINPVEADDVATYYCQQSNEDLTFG

B1: Human hepcidin peptide (hepcidin-25) (peptide)
peptide: DTHFPICIFCCGCCHRSKCGMCCKT
notes: Synthetic 25 aa peptide; also called hep-25; Hep-25
On to B1, for which the EC50 in assay [1] was found to be 0.0205 µg/mL; in assay [2] it was 0.0179 µg/mL; in assay [3], 0.0174 µg/mL; in assay [4], 0.0188 µg/mL; in assay [5], 0.0191 µg/mL; in assay [6], 0.0186 µg/mL. In assay [7], the EC50 was ≤ 0.005 µg/mL.
